What was measured:
[1] = biological target: T1, human PD-L1-Fc protein (human, UniProt Q9NZQ7 19-239); assay: ELISA on coated human PD-L1-Fc
T1 construct: Coated on ELISA plates; also called huPD-L1; not shown: Fc part
Experimental: (§1) To evaluate the binding of humanized antibodies to huPD-L1, Mouse PD-L1, Rat PD-L1, […], the antibodies were performed for the ELISA testing. Briefly, microtiter plates were coated with human, mouse, rat and rhesus PD-L1-Fc protein at 1 μg/ml in PBS, 100 μl/well at […] overnight, then blocked with […] of 5% BSA. Three-fold dilutions of humanized antibodies starting from 1 μg/ml were added to each well and incubated for 1-2 hours at RT. The plates were washed with PBS/Tween and then incubate with […] antibody conjugated with Horse Radish Peroxidase (HRP) for 1 hour at RT. After washing, the plates were developed with TMB substrate and analyzed by spectrophotometer at OD 450-630 nm. The Hu1210-41 antibody can bind to rhesus PD-L1 with lower affinity and cannot bind to rat and mouse PD-L1 (FIG. 8 & Table 12).

[2] = biological target: T1, human PD-L1-Fc protein; assay: receptor blocking assay, panel PD1; blocked ligand biotin-labeled human PD-1-Fc; by paragraph 296 an ELISA on coated PD-L1-Fc, though the sheet is headed 'Cell based receptor blocking assay'
In short: (§2)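 IC50 values came from the curve of a protein-based receptor blocking ELISA. Wells held human PD-L1-Fc coated at 1 μg/ml in PBS (100 μl/well) overnight at 4° C and were blocked with 5% BSA for 2 hr at 37° C. A 50 μl portion of biotin-labeled human PD-1-Fc or B7-1 protein and 50 μl of a 5-fold antibody dilution series beginning at 100 nM were incubated together for 1 hour at 37° C, and streptavidin-HRP was added for a further 1 hour at 37° C.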

[3] = biological target: T2, B7-1 protein (human, UniProt P33681 35-242, limits assumed, biotin-labeled in the blocking assay); assay: ELISA
T2 construct: also called human B7-1; biotin-labeled B7-1
T2 sequence (looked up): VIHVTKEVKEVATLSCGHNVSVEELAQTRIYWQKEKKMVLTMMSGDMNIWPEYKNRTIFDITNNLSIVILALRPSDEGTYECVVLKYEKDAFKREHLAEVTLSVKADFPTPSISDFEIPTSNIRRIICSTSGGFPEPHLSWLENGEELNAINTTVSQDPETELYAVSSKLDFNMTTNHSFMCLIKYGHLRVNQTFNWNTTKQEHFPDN

[4] = biological target: T3, B7-H2 (human, UniProt O75144 19-258, limits assumed); assay: ELISA
T3 sequence (looked up): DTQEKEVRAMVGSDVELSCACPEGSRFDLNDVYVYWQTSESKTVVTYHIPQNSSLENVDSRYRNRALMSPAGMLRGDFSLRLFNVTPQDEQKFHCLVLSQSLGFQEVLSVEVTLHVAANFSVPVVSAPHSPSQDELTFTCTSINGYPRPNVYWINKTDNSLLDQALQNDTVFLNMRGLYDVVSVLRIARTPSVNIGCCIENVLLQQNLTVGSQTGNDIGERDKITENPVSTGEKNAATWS

[5] = biological target: T4, B7-DC (human, UniProt Q9BQ51 20-220, limits assumed); assay: ELISA
T4 sequence (looked up): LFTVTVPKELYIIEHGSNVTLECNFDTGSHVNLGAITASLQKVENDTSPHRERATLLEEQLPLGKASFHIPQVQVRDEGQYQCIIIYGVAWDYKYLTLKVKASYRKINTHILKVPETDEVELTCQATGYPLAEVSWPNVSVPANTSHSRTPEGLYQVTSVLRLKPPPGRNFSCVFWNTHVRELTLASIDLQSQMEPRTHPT

[6] = biological target: BTLA (human, UniProt Q7Z6A9 31-157, limits assumed); assay: ELISA
[7] = biological target: CTLA4 (human, UniProt P16410 36-161, limits assumed); assay: ELISA
Sequence of CTLA4 (P16410 36-161 limits assumed): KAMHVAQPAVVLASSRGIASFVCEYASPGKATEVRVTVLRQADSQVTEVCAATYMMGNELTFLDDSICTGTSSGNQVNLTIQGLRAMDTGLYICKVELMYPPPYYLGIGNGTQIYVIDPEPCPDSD

[8] = biological target: T5, ICOS (human, UniProt Q9Y6W8 21-140, limits assumed); assay: ELISA
T5 sequence (looked up): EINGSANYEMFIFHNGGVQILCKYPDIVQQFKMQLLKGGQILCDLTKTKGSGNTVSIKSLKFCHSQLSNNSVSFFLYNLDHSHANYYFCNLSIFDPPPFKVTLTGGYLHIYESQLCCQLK

[9] = biological target: T6, huPD-1 (human, UniProt Q15116 25-167, limits assumed, biotin-labeled in the FACS blocking assays); assay: ELISA
T6 construct: also called biotin-labeled huPD-1; Bio-PD1
T6 sequence (Q15116 25-167 limits assumed): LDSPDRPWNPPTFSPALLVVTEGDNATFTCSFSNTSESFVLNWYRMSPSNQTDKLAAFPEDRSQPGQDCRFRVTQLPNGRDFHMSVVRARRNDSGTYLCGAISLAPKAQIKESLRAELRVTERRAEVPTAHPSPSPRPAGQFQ

[10] = biological target: CD28 (human, UniProt P10747 19-152); assay: ELISA
[11] = biological target: T7, B7-2 (human, UniProt P42081 24-247, limits assumed); assay: ELISA
T7 sequence (looked up): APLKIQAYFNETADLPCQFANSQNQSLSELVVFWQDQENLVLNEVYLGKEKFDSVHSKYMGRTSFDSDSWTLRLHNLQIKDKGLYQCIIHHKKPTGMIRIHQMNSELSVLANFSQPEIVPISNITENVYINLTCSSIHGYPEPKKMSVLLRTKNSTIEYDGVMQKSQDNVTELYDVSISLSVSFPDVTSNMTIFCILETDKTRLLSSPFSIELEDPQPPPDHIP

[12] = biological target: T8, human PD-L1-his taq protein (human, UniProt Q9NZQ7 19-239, limits assumed); assay: SPR Biacore T200, antibody captured, PD-L1-his injected
T8 construct: also called recombinant PD-L1 protein; recombinant human PD-L1; not shown: his tag
T8 sequence (Q9NZQ7 19-239 limits assumed): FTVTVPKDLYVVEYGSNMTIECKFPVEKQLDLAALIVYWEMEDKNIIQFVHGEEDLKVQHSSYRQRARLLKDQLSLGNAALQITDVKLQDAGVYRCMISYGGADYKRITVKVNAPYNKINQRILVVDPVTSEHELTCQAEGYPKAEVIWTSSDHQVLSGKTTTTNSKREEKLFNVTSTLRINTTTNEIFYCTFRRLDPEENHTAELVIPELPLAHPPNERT
In short: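 HL1210-3 mouse mAb was captured via anti-mouse Fc antibody on a CM5 chip, then serially diluted PD-L1-his was injected for 3 min […]. Dissociation was followed for 900 s.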

[13] = biological target: T9, rhesus PD-L1-Fc protein (rhesus, UniProt F6PJN1 19-239); assay: ELISA on coated rhesus PD-L1-Fc
T9 construct: not shown: Fc part
Experimental: as §1

[14] = biological target: rat PD-L1-Fc protein (rat, UniProt D4AE25 19-239); assay: ELISA on coated PD-L1-Fc
Sequence of rat PD-L1-Fc protein (D4AE25 entry or part of it limits assumed): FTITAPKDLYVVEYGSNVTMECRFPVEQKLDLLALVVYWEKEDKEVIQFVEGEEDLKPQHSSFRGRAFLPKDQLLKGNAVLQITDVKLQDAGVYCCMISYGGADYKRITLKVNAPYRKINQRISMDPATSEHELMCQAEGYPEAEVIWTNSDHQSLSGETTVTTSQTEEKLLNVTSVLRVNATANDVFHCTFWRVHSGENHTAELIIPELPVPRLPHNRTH
Experimental: as §1

[15] = biological target: T10, mouse PD-L1-Fc protein (mouse, UniProt Q9EP73 19-238, limits assumed); assay: ELISA on coated PD-L1-Fc
T10 construct: not shown: Fc part
T10 sequence (Q9EP73 19-238 limits assumed): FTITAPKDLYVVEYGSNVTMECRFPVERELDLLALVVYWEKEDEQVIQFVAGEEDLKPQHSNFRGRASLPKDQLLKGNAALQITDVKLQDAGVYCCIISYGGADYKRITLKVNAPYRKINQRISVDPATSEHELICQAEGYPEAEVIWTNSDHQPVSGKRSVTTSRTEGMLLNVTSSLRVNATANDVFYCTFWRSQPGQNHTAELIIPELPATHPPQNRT
Experimental: as §1

[16] = biological target: T1, human PD-L1-Fc protein; assay: receptor blocking assay, panel B7-1; blocked ligand biotin-labeled B7-1 protein; by paragraph 296 an ELISA on coated PD-L1-Fc, though the sheet is headed 'Cell based receptor blocking assay'
In short: as §2

[17] = biological target: T1, human PD-L1-Fc protein; assay: ELISA on coated human PD-L1-Fc; table row 'Human PD-L1', no unit in the table, x axis Ab(nM); Table 12 of the text prints 0.215 nM
Experimental: as §1

[18] = biological target: T1, human PD-L1-Fc protein; assay: ELISA on coated PD-L1-Fc
[19] = biological target: T11, human PD-L1 expressed on mammalian cells (human, UniProt Q9NZQ7 19-290); assay: FACS-based receptor blocking on PDL1-CHOK1 cells; blocked ligand biotin-labeled huPD-1; unit from the x axis Log [Con. M]; the text prints the rounded 2.56 nM
T11 construct: whole, on cells; also called PDL1-CHOK1 cells; PDL1-Raji cells
T11 sequence (Q9NZQ7 19-290): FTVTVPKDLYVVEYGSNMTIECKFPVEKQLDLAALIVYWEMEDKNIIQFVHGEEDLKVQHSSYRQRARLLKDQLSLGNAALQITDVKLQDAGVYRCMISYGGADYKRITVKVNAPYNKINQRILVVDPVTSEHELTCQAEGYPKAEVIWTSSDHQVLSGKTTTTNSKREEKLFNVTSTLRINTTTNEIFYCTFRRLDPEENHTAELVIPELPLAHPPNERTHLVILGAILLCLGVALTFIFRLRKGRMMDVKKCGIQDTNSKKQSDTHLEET
Experimental: (§3) To evaluate the blocking effect of HL1210-3 mouse mAb on human PD-L1 expressed on mammalian cells to bind to its receptor PD-1, the FACS-based receptor blocking assay was used. Briefly, PDL1-CHOK1 cells were firstly incubated with 3-fold serious diluted HL1210-3 mouse mAb starting at 20 μg/ml at RT for 1 hour. After wash by FACS buffer (PBS with 2% FBS), the biotin-labeled huPD-1 was added to each well and incubated at RT for 1 hour. Then, the Streptavidin-PE was added to each well for 0.5 hour post twice wash with FACS buffer. The mean florescence intensity (MFI) of PE was evaluated by FACSAriaIII.

[20] = biological target: T11, human PD-L1 expressed on mammalian cells; assay: FACS receptor blocking on PDL1-CHOK1 cells, competitor biotin huPD-1
Experimental: as §3

[21] = biological target: T8, human PD-L1-his taq protein; assay: SPR Biacore T200, antibody captured by anti-mouse Fc, PD-L1-his injected
Experimental: The binding of the HL1210-3 antibodies to recombinant PD-L1 protein (human PD-L1-his taq) was tested with BIACORE™ using a capture method. The HL1210-3 mouse mAb was captured using anti-mouse Fc antibody coated on a CM5 chip. A series dilution of human PD-L1-his taq protein was injected over captured antibody for 3 mins at a flow rate of […]. The antigen was allowed to dissociate for 900 s. All the experiment were carded out on a Biacore T200. Data analysis was carried out using Biacore T200 evaluation software.

[22] = biological target: T1, human PD-L1-Fc protein; assay: ELISA receptor blocking, coated PD-L1-Fc, competitor biotin PD-1-Fc
Experimental: To evaluate the blocking effect of HL1210-3 mouse mAb on recombinant human PD-L1 to bind to its receptor PD-1, the ELISA based receptor blocking assay was employed. Briefly, microtiter plates were coated with human PD-L1-Fc protein at 1 μg/ml in PBS, 100 μl/well at 4° C. overnight, then blocked with 100 μl/well of 5% BSA. 50 μl biotin-labeled human PD-1-Fc protein and 3-fold dilutions of HL1210-3 antibodies starting from 2 μg/ml at 50 μl were added to each well and incubated for 1 hour at 37° C. The plates were washed with PBS/Tween and then incubated with Streptavidin-HRP for 1 hour at 37° C. After washing, the plates were developed with TMB substrate and analyzed by spectrophotometer at OD 450-630 nm.

T1 sequence (Q9NZQ7 19-239 limits assumed): as the sequence (Q9NZQ7 19-239 limits assumed) above

B1: Hu1210-41 (antibody, V domains shown)
VH: EVQLVESGGGLVQPGGSLRLSCAASGFTFSSYDMSWVRQAPGKSLEWVATISDAGGYIYYSDSVKGRFTISRDNAKNSLYLQMNSLRDEDTAVYICAREFGKRYALDYWGQGTTVTVSS
VL: DIQMTQSPSSLSASVGDRVTITCKASQDVTPAVAWYQQKPGKAPKLLIYSTSSRYTGVPSRFSGSGSGTDFTFTISSLQPEDIATYYCQQHYTTPLTFGQGTKLEIK
notes: Hu1210 VH.4d x Vk.1; human gamma 1 / kappa constant domains; also called H12; Hu1210 VH.4d x Hu1210 Vk.1
For B1, the EC50 [1] was 0.215 nM, the “IC50 (read off the curve)” value [2] was about 1 nM and the binding result [3] was “no binding”. B1: no binding [4]; no binding [5]; no binding [6]. B1: no binding [7]; no binding [8]; no binding [9]. The binding result [10] was “no binding”, the binding result [11] was “no binding” and the Kd [12] was 0.378 nM. For the same binder, the koff [12] was 3.46e-05 s⁻¹, the kon [12] was 91700 M⁻¹ s⁻¹ and the EC50 [13] was 0.628 nM. The binding result [14] was “no binding (tested: 1 µg/ml (highest concentration))”, the binding result [15] was “no binding (tested: 1 µg/ml (highest concentration))” and the “IC50 (read off the curve)” value [16] was about 0.9 nM. For the same binder, the EC50 [17] was 0.21 nM.

B2: HL1210-3 mouse mAb (antibody, V domains shown)
VH: EVKLVESGGDLVKPGGSLKLSCAASGFTFSSYDMSWVRQTPEKSLEWVATISDGGGYIYYSDSVKGRFTISRDNAKNNLYLQMSSLRSEDTALYICAREFGKRYALDYWGQGTSVT
VL: DIVMTQSHKFMSTSVGDRVSISCKASQDVTPAVAWYQQKPGQSPKLLIYSTSSRYTGVPDRFTGSGSGTDFTFTISSVQAEDLAVYYCQQHYTTPLTFGAGTKLELK
notes: Mouse monoclonal antibody purified from hybridoma; also called hybridoma clone HL1210-3
For B2, the EC50 [18] was 5.54 ng/mL, the IC50 [19] was 2.56 nM and the IC50 [20] was 2.56 nM. For the same binder, the Kd [21] was 0.293 nM, the koff [21] was 4.69e-05 s⁻¹ and the kon [21] was 161000 M⁻¹ s⁻¹. It also gave an IC50 [22] of 0.783 nM.
